Laboratory results published in patent publication US20170088632A1 (OMEROS, published 2017).

Tests used:
[1] = biological target: T1, human MASP-2 (human, UniProt O00187 16-686); assay: cell-based or functional assay
[2] = biological target: T1, human MASP-2; assay: cell-based or functional assay; remark: listed apart in the source
[3] = biological target: T2, African Green monkey MASP-2 (in African Green monkey serum) (African Green monkey); assay: cell-based or functional assay
[4] = biological target: rat MASP-2 (in rat serum) (rat, UniProt Q9JJS8 20-685); assay: cell-based or functional assay
[5] = biological target: T3, human MASP-2A (catalytically inactive human MASP-2, Ser618 to Ala618) (human, UniProt O00187 16-686); assay: ELISA, purified scFv titrated on physically adsorbed human MASP-2A
T3 construct: the ELISA and Biacore methods say only 'MASP-2A', so a tag may have been present; also called huMASP2A; huMASP-2A

[6] = biological target: T1, human MASP-2; assay: cell-based or functional assay; remark: listed apart in the source
[7] = biological target: T3, human MASP-2A (catalytically inactive …); assay: ELISA on adsorbed human MASP-2A, purified scFv monomer
[8] = biological target: T3, human MASP-2A (catalytically inactive …); assay: Biacore, microscale-expressed scFv on MASP-2A coated CM5 chip
Description: Therefore, three different scFv libraries were constructed by PCR where the amino acid positions 1, 2 and 3 were randomized to the set of all possible 20 amino acids using degenerate codons. After cloning the libraries, microscale expression was performed and scFv binding was monitored on a MASP-2A coated CM5 chip (not shown).

[9] = biological target: T1, human MASP-2; assay: cell-based or functional assay; remark: listed apart in the source
[10] = biological target: T1, human MASP-2; assay: cell-based or functional assay; remark: listed apart in the source
[11] = biological target: T2, African Green monkey MASP-2 (in African …); assay: cell-based or functional assay; remark: listed apart in the source
[12] = biological target: T1, human MASP-2; assay: cell-based or functional assay; remark: listed apart in the source
[13] = biological target: T1, human MASP-2; assay: cell-based or functional assay; remark: listed apart in the source
[14] = biological target: T2, African Green monkey MASP-2 (in African …); assay: cell-based or functional assay; remark: listed apart in the source
[15] = biological target: T3, human MASP-2A (catalytically inactive …); assay: SPR (Biacore), MASP-2A amine coupled to CM5 chip, scFv monomer in solution
[16] = biological target: T3, human MASP-2A (catalytically inactive …); assay: titration ELISA on coated human MASP-2A ('Binding affinity'), scFv
[17] = biological target: T3, human MASP-2A (catalytically inactive …); assay: SPR (Biacore), scFv captured by anti-cMyc antibody, MASP-2A in solution
[18] = biological target: T3, human MASP-2A (catalytically inactive …); assay: SPR (Biacore), scFv captured by anti-cMyc antibody, MASP-2A in solution; MASP-2 in solution, scFv captured (not immobilized MASP-2)

T3 sequence (O00187 16-686 S633A): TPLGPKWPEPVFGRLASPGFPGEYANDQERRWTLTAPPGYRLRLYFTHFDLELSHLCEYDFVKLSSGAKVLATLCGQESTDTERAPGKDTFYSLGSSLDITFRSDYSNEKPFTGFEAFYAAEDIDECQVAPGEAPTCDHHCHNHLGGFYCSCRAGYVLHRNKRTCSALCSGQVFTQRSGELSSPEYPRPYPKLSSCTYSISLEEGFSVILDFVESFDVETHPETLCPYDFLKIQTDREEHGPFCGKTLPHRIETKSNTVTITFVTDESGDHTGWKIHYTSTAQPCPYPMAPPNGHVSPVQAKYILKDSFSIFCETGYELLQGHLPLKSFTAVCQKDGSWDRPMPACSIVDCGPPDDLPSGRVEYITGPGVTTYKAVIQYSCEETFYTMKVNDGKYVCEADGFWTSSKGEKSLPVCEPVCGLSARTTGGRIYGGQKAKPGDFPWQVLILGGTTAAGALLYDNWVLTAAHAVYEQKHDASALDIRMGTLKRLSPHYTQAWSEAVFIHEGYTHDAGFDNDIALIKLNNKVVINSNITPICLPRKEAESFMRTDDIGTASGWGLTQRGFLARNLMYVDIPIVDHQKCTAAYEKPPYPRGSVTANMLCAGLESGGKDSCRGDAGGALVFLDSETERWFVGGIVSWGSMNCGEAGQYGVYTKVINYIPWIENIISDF
Sequence of rat MASP-2 (in rat serum) (Q9JJS8 other isoform, or with tags, fused parts or gaps limits assumed): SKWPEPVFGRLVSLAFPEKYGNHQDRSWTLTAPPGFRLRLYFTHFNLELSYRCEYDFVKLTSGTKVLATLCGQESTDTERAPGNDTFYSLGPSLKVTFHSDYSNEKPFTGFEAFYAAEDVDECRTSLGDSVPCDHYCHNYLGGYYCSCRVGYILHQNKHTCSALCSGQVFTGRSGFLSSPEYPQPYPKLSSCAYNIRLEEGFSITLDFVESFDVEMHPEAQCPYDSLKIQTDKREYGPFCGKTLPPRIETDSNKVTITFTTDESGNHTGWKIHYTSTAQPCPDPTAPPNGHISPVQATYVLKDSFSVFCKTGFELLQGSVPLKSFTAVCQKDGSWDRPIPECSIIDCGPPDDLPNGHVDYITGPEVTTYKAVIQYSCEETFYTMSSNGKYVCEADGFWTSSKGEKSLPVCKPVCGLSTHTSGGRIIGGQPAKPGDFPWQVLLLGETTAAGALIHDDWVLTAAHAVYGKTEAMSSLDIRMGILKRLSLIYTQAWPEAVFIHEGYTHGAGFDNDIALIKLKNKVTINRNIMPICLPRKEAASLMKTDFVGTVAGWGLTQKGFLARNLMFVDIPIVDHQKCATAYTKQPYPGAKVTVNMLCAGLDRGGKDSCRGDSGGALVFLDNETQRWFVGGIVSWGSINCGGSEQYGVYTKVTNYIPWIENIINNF
T1 sequence (O00187 16-686): as the sequence (O00187 16-686 S633A) above, with A618S counted along it

| Binder | 1% human serum C3 assay IC50 [1] [nM] | IC50, C3c release, 1% human serum (first experiment) [2] [nM] | IC50, C3c release, 1% human serum (second experiment) [2] [nM] | IC50, C3c release, 0.2% African Green serum (first experiment) [3] [nM] | IC50, C3c release, 0.2% African Green serum (second experiment) [3] [nM] | IC50, C3c release, 0.375% rat serum (second experiment) [4] [nM] | EC50 (read off the curve) [5] [nM] | Complement assay IC50 [6] [nM] | Kd [7] [nM] | Inhibitory activity in Human Serum IC50 (C3b deposition, 0.5% human serum) [9] [nM] | Functional IC50, C3b deposition, human serum Exp #1 [13] [nM] | Functional IC50, C3b deposition, human serum Exp #2 [13] [nM] | Functional IC50, C3b deposition, human serum Exp #3 [13] [nM] | Functional IC50, C3b deposition, human serum Exp #4 [13] [nM] | Functional IC50, C3b deposition, non-human primate serum Exp #1 [14] [nM] | Functional IC50, C3b deposition, non-human primate serum Exp #2 [14] [nM] | Kd [15] [nM] | also measured |
| --- | --- | --- | --- | --- | --- | --- | --- | --- | --- | --- | --- | --- | --- | --- | --- | --- | --- | --- |
| scFv daughter clone 17N16m_d17N9 (scFv, also called 17N9 daughter clone) scFv: QVQLQQSGPGLVKPSQTLSLTCAISGDSVSSTSAAWNWIRQSPSRGLEWLGRTYYRSKWYNDYAVSVKSRITINPDTSKNQFSLQLNSVTPEDTAVYYCARDPFGVPFDIWGQGTMVTVSSKLSGSASAPKLEEGEFSEARVSYELIQPPSVSVAPGQTATITCAGDNLGKKRVHWYQQRPGQAPVLVIYDDSDRPSGIPDRFSASNSGNTATLTITRGEAGDEADYYCQVWDIATDHVVFGGGTKLTVLAAAGSEQKLISE | 48 | 39.9 | 57.7 | 63.8 | 81.1 | 141 | ~0.8 | 10.3 | 48.6 |  |  |  |  |  |  |  |  | 90% human serum C3 assay IC50 [1]: 15 nM; 90% human serum C4 assay IC50 [1]: 230 nM; IC50, C3c release, 0.375% rat serum (first experiment) [4]: 79.3 nM |
| scFv mutagenesis clone #90 of 17D20 (scFv) scFv: QVTLKESGPVLVKPTETLTLTCTVSGFSLSRGKMGVSWIRQPPGKALEWLAHIFSSDEKSYRTSLKSRLTISKDTSKNQVVLTMTNMDPVDTATYYCARIRPGGIDYWGQGTLVTVSSKLSGSASAPKLEEGEFSEARVQPVLTQPPSVSVSPGQTASITCSGDKLGDKFAYWYQQKPGHSPVLVIYQDNKRPSGIPGRFSGSNSGNTATLTISGTQAMDEADYYCQAWDSSTAVFGTGTKVTVLAAAGSEQKLISEEDLNSHHHHHH |  |  |  |  |  |  |  |  |  |  |  |  |  |  |  |  |  | binding result [8]: binds |
| scFv mother clone 17N16 (scFv, also called 17N16mc; 17N16m) scFv: QVQLQQSGPGLVKPSQTLSLTCAISGDSVSSTSAAWNWIRQSPSRGLEWLGRTYYRSKWYNDYAVSVKSRITINPDTSKNQFSLQLNSVTPEDTAVYYCARDPFGVPFDIWGQGTMVTVSSKLSGSASAPKLEEGEFSEARVSYVLTQPPSVSVAPGQTARITCGGNNIGSKNVHWYQQKPGQAPVLVVYDDSDRPSGIPERFSGSNSGNTATLTVSRVEAGDEADYYCQVWDTTTDHVVFGGGTKLTVLAAAGSEQKLISEEDLNSHHHHHH | 68 | 65.3 | 73.5 | 92.9 | 81.4 | 196 | ~0.9 | 8.8 | 18.9 | 15.4 | 15.4 | 65.4 | 24.8 | 19.2 | 95.6 | 58.8 | 3560 | C3 Assay IC50 in dilute serum (1%), human serum Exp #1 [10]: 19 nM; C3 Assay IC50 in dilute serum (1%), human serum Exp #2 [10]: 24 nM; C3 Assay IC50 in dilute serum (1%), human serum Exp #3 [10]: 65 nM; C3 Assay IC50 in dilute serum (1%), human serum mean [10]: 36 nM; C3 Assay IC50, non-human primate serum Exp #1 [11]: 95 nM; C3 Assay IC50, non-human primate serum Exp #2 [11]: 58 nM; C3 Assay IC50, non-human primate serum mean [11]: 76 nM; C3 convertase assay using 1% human serum, IC50 (first experiment) [12]: 36.2 nM; C3 convertase assay using 1% human serum, IC50 (second experiment) [12]: 77.6 nM; Kd [16]: 18.9 nM; Kd [17]: 1.68 nM |
| scFv mother clone 4D9 (scFv, also called 4D9 (18L16)) scFv: QITLKESGPVLVKPTETLTLTCTVSGFSLSNARMGVSWIRQPPGKALEWLAHIFSNDEKSYSTSLKSRLTISKDTSKSQVVLTMTNMDPVDTATYYCARMRYSSSLYGMDVWGQGTRVTVSSKLSGSASAPKLEEGEFSEARVSYELIQPPSVSVSPGQTASITCSGDKLGDKYVSWYQQKPGRSPVLVIYRDTKRPSGIPERFSGSNSGNTATLTISGTQAMDEADYYCQAWDSSTVVFGGGTKLTVLAAAGSEQKLISEEDLNSHHHHHH |  |  |  |  |  |  |  |  |  | 22 | 22 | 46.3 | 62.2 | 38.4 | 115 | 203 | 8.4 | Kd [18]: 0.02 nM |
